Substrate in data set [1]: O=[N+]([O-])c1ccc(O[C@@H]2OC[C@H](O)[C@H](O)[C@H]2O)cc1
The data set can be described thus: purified protein. Type of data set: biochemical, Acetivibrio thermocellus. Conditions: 50°C, 20 mM sodium phosphate pH 5.7 (table note; methods print 50 mM sodium phosphate pH 6.0), substrate 20–500 µM.

Substrate in data set [2]: O=[N+]([O-])c1ccc(O[C@@H]2O[C@@H](CO)[C@H](O)[C@H]2O)cc1
The data set can be described thus: purified protein. In kind it is biochemical, Acetivibrio thermocellus. Conditions: 50°C, 20 mM sodium phosphate pH 5.7 (table note; methods print 50 mM sodium phosphate pH 6.0), substrate 20–500 µM.

What is called Km is the concentration of substrate that gives half-maximal velocity. The kcat is the maximal rate divided by the concentration of active sites.

B1: Ct43Araf (Acetivibrio thermocellus ATCC 27405) (protein)
chain: AADYPIFSQRFTADPAAVVYNGRLYIYCSHDSDATPGQSTYNIPDITCISTDDLKNWTDHGEVFNAKRDSRWASVSWAPSIVYRNNKFYLYYGNGGNGIGVAVSDSPTGPFKDPLPGPLVSWNTPGVQPAQNMWLFDPGVFVDDDGQAYMYFGGNGQNNIRVIKLGNDMISTVGSAMTMSAPRFFEAAYMHKYNGKYYFSYASDFSQGASKIEYMMSDKPTTGFQYKGVILPQPPDNYSNNNHHAIVEYKGNWYVVYHNRTVAKQRGLDPVYQRNVCIDQMFYNADGTIKQVVPTVDGLKQLKYVDPYTKNLAVTMHKESGIETEECSEGGRNVAFIENGDWIQVKGVDFGNVGPTSFEARVASATNGGNIEIRLDSPTGTLIGTCKVEGTGDWQKWVTKTCSVSKVTGVHDLFFRFTGGSGYLFNFSWWKFNSDATPTPTPPPQPSTVPVTERSAFSKIEVEDFNDIKSSTIQKIGTPNGGSGIGYIENGDWLAYKNIDFGNGATTFKALVASTLSPNIELRLDSPTGTLIGTLKVAATGGFNAYEEQSCNISKVTGKHDLYLVFSGAVNIDWFTFGGSSGII
notes: CtGH43-CtCBM6A-CtCBM6B; His6-tagged, pET-21a(+), E. coli BL21(DE3); 63 kDa; gene range printed 1545911 to 1547651; modules 903, 405 and 402 bp; forward primer starts at AADYP
Regarding B1, in “purified protein [1]”, the Km is 0.093 ± 0.003 mg/mL and the kcat turned out to be 3.5 ± 0.0783 s⁻¹. In addition, in “purified protein [2]”, the Km was 0.05 ± 0.002 mg/mL and the kcat worked out at 4.717 ± 0.0333 s⁻¹.

B2: CtGH43 (Acetivibrio thermocellus ATCC 27405) (protein)
chain: AADYPIFSQRFTADPAAVVYNGRLYIYCSHDSDATPGQSTYNIPDITCISTDDLKNWTDHGEVFNAKRDSRWASVSWAPSIVYRNNKFYLYYGNGGNGIGVAVSDSPTGPFKDPLPGPLVSWNTPGVQPAQNMWLFDPGVFVDDDGQAYMYFGGNGQNNIRVIKLGNDMISTVGSAMTMSAPRFFEAAYMHKYNGKYYFSYASDFSQGASKIEYMMSDKPTTGFQYKGVILPQPPDNYSNNNHHAIVEYKGNWYVVYHNRTVAKQRGLDPVYQRNVCIDQMFYNADGTIKQVVPTVDGLKQ
notes: truncated: N-terminal GH43 catalytic module only (903 bp), both CBM6 removed; His6-tagged, pET-28a(+), E. coli BL21(DE3) pLysS; 34 kDa
Take B2: in “purified protein [1]”, the Km was 0.097 ± 0.004 mg/mL and the kcat turned out to be 3.533 ± 0.0333 s⁻¹. In addition, in “purified protein [2]”, the Km came out at 0.04 ± 0.004 mg/mL and the kcat worked out at 4.783 ± 0.0167 s⁻¹.
